Test results reported in publication PMC2840211.
Where a chain is given by its changes, count along the chain named.

B1: ectodomain of RAE-1γ (domain or fragment)
chain: GLDDAHSLRCNLTIKAPTPADPLWYEAKCLVDEILILHLSNINKTMTSGDPGETANATEVGECLTQPVNDLCQKLRDKVSNTKVDTHKTNGYPHLQVTMIYPQSQGQTPSATWEFNISDSYFFTFYTENMSWRSANDESGVIMNKWNDDGDLVQRLKYFIPECRQKIDEFLKQSKEKP
B2: ectodomain of RAE-1β (domain or fragment)
chain: GLDDAHSLRCNLTIKDPTPADPLWYEAKCFVGEILILHLSNINKTMTSGDPGETANATEVKKCLTQPLKNLCQKLRNKVSNTKVDTHKTNGYPHLQVTMIYPQSQGRTPSATWEFNISDSYFFTFYTENMSWRSANDESGVIMNKWKDDGEFVKQLKFLIHECSQKMDEFLKQSKEKP
B3: ectodomain of RAE-1γ PLWY-deletion mutant (domain or fragment)
chain: GLDDAHSLRCNLTIKAPTPADEAKCLVDEILILHLSNINKTMTSGDPGETANATEVGECLTQPVNDLCQKLRDKVSNTKVDTHKTNGYPHLQVTMIYPQSQGQTPSATWEFNISDSYFFTFYTENMSWRSANDESGVIMNKWNDDGDLVQRLKYFIPECRQKIDEFLKQSKEKP
B4: ectodomain of RAE-1β PLWY-deletion mutant (domain or fragment)
chain: GLDDAHSLRCNLTIKDPTPADEAKCFVGEILILHLSNINKTMTSGDPGETANATEVKKCLTQPLKNLCQKLRNKVSNTKVDTHKTNGYPHLQVTMIYPQSQGRTPSATWEFNISDSYFFTFYTENMSWRSANDESGVIMNKWKDDGEFVKQLKFLIHECSQKMDEFLKQSKEKP
B5: ectodomain of RAE-1δ (domain or fragment)
chain: B4 chain with D16A, A23V, K57G, K58E, N66D, N73D, R103Q, N125I, E158G

What was measured:
RAE-1δ (Mus musculus) = RAE-1δ (Mus musculus) (UniProt Q9JI58); conditions: cited from earlier work
[1] = target: ectodomain of m152 (mouse cytomegalovirus m152/gp40 immunoevasin) (mouse cytomegalovirus (MCMV)); experiment: AUC
[2] = target: ectodomain of m152 (mouse cytomegalovirus m152/gp40 immunoevasin) (mouse cytomegalovirus (MCMV)); experiment: AUC; remark: listed apart in the source
[3] = target: ectodomain of m152 (mouse cytomegalovirus m152/gp40 immunoevasin) (mouse cytomegalovirus (MCMV)); experiment: ITC

UniProt Q9JI58, sequence (Q9JI58 29-225, stated change not applied): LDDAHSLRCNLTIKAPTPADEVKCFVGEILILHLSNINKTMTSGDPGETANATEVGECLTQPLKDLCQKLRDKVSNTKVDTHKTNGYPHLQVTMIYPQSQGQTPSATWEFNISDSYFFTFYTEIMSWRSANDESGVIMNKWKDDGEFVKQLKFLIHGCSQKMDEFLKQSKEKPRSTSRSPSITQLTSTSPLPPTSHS

Molecule	Kd [1] [nM]	also measured
NKG2D (from UniProt O54709)		Kd (RAE-1δ (Mus musculus)): 726 nM
B1	1000	
B2	4100	Kd [2]: 1700 nM; Kd [3]: 2100 nM; koff [1]: > 0.001 s⁻¹; stoichiometry N [1]: 1
B3	1400	
B4	31000	
B5	34000	
